pKd: −log10 of the molar value.
What was measured:
[1] = molecular target: PFE1605w‐C (Plasmodium falciparum); experiment: fluorescence polarisation; 0.5 μM 5-FAM-labelled PFE1605w-C titrated with unlabelled band 3 cytosolic domain (or BSA as negative control); 20°C; 50 mM NaCl, 20 mM Na2HPO4 pH 7.0; single-site model
[2] = molecular target: ATS‐C fragment of PfEMP1 variant PFL0030c (VAR2CSA) (Plasmodium falciparum); experiment: fluorescence polarisation; 500 nM 5-FAM-labelled ATS-C variants titrated with unlabelled PFE1605w PHIST domain; 20°C; 50 mM NaCl, 20 mM Na2HPO4 pH 6.5; single-site model

Substance | pKd [1] | pKd [2]
band 3 cytosolic domain (from UniProt P02730 1-379) (domain or fragment) | 5.82 | –
PFE1605w PHIST domain (domain or fragment) | – | 4.05

From article PMC5103180
